Results as given in publication PMC4599002, “The Potato Nucleotide-binding Leucine-rich Repeat (NLR) Immune Receptor Rx1 Is a Pathogen-dependent DNA-deforming Protein” (The Journal of Biological Chemistry, 2015).

Columns and labels:
[1] = target: T1, Rx1(1–489)WT (Solanum tuberosum, UniProt Q9XGF5); test: time-resolved FRET of DNA bending; format: biochemical; settings: 20-bp end-labelled dsDNA (50 nM), 1.5 uM protein, 60 mM NaCl, room temperature; activator of DNA bending, P-loop dependent
T1 construct: gene rx; CC-NB-ARC region, residues 1-489, LRR domain absent; pET32c, hexahistidine tag
T1 sequence (Q9XGF5 1-489): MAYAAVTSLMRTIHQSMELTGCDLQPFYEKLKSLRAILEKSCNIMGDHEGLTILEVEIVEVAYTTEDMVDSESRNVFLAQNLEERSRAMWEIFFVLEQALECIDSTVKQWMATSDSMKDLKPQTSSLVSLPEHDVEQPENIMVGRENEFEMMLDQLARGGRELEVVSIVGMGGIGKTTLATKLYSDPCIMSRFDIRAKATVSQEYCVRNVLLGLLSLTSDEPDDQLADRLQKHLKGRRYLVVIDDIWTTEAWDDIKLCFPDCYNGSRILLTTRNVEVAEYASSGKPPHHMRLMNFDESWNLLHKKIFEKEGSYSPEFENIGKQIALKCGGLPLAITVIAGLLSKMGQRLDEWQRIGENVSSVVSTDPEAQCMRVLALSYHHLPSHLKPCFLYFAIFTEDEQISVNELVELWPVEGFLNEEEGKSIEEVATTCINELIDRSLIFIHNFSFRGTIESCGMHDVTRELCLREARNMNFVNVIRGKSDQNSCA

[2] = target: T2, Orc1-1;Orc1-3 (Sulfolobus solfataricus;Sulfolobus …, UniProt Q980N4;Q97WM8 1-397;1-394, |); test: P1 nuclease sensitivity; sensitivity indistinguishable from Rx1(1-489)WT; EMSA: 0.15 nM 32P nucleic acid, 20 mM Tris-HCl pH 8.0, 60 mM NaCl, 2 mM EDTA, 1 mM DTT, 10% glycerol, 0.1 mg/ml BSA, 20 min on ice; FRET: 1.5 uM protein, 50 nM; settings: protein: recombinant;recombinant; tags: ;; copies: 1;1; label: 32P 5' end of strand 1; blunt
T2 sequence 1: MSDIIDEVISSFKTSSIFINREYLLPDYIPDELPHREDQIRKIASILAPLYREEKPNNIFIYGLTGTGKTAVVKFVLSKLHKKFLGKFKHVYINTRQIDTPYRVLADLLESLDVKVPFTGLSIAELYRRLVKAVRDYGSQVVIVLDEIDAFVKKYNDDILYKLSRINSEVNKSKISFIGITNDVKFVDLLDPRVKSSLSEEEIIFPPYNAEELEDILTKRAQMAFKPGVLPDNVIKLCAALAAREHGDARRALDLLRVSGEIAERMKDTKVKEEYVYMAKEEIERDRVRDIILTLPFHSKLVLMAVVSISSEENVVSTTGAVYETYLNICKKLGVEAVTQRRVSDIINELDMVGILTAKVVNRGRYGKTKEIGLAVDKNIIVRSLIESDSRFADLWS
T2 sequence 2: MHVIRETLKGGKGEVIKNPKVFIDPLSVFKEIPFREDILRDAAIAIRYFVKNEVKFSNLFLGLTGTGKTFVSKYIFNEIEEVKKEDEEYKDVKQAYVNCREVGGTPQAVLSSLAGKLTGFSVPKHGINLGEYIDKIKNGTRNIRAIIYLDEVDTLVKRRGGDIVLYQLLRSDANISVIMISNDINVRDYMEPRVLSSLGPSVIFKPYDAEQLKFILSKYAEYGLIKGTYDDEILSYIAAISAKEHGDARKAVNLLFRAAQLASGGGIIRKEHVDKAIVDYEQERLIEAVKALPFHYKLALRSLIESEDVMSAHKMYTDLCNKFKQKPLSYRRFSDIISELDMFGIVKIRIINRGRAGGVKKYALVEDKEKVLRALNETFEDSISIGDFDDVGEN

[3] = target: T3, Rx1(1-489) WT (CC-NB-ARC) (potato (introgressed from Solanum …, UniProt Q9XGF5 1-489)); test: P1 nuclease sensitivity; no nucleotide; local melting; EMSA: 0.15 nM 32P nucleic acid, 20 mM Tris-HCl pH 8.0, 60 mM NaCl, 2 mM EDTA, 1 mM DTT, 10% glycerol, 0.1 mg/ml BSA, 20 min on ice; FRET: 1.5 uM protein, 50 nM; settings: protein: recombinant; tags: His6 (pET32c); label: 32P 5' end of strand 1; blunt
T3 sequence: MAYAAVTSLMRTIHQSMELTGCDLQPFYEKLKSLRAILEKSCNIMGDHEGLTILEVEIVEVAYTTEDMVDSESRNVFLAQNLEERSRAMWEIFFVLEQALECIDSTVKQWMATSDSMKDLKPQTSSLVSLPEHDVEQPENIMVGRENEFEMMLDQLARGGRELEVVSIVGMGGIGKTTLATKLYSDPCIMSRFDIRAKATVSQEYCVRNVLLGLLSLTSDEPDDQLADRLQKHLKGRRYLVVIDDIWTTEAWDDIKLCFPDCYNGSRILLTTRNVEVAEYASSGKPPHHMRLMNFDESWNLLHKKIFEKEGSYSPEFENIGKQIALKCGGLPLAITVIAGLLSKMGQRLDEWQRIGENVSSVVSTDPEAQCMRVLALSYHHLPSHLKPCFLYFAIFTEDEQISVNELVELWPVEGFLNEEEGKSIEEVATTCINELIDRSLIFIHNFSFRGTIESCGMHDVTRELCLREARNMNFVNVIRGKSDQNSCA

[4] = target: T4, Rx1(1-489) K176R (potato (introgressed from Solanum …, UniProt Q9XGF5 1-489, K176R)); test: time-resolved FRET (bending); no nucleotide; bends similarly to WT; EMSA: 0.15 nM 32P nucleic acid, 20 mM Tris-HCl pH 8.0, 60 mM NaCl, 2 mM EDTA, 1 mM DTT, 10% glycerol, 0.1 mg/ml BSA, 20 min on ice; FRET: 1.5 uM protein, 50 nM; settings: protein: recombinant; tags: His6 (pET32c); label: fluorescein donor and tetramethylrhodamine acceptor, end labels; blunt
T4 sequence: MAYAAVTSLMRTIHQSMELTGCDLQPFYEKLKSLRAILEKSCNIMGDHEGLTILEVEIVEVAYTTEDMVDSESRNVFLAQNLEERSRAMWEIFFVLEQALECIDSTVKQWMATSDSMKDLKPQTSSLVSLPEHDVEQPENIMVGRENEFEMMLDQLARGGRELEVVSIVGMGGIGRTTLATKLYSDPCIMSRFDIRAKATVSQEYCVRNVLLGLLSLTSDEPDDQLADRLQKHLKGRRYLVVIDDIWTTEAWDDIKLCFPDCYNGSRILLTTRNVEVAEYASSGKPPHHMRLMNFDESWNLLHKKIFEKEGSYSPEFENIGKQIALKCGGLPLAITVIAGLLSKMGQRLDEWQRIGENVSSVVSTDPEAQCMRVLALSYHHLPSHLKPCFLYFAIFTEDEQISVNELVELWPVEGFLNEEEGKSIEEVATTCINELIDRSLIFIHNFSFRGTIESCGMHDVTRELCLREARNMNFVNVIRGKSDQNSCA

[5] = target: T3, Rx1(1-489) WT (CC-NB-ARC); test: time-resolved FRET (bending); no nucleotide; bend angle 42 degrees; EMSA: 0.15 nM 32P nucleic acid, 20 mM Tris-HCl pH 8.0, 60 mM NaCl, 2 mM EDTA, 1 mM DTT, 10% glycerol, 0.1 mg/ml BSA, 20 min on ice; FRET: 1.5 uM protein, 50 nM; settings: protein: recombinant; tags: His6 (pET32c); label: fluorescein donor and tetramethylrhodamine acceptor, end labels; blunt
[6] = target: T3, Rx1(1-489) WT (CC-NB-ARC); test: EMSA; affinity similar to dsDNA; Kd in Table 1 not in material; EMSA: 0.15 nM 32P nucleic acid, 20 mM Tris-HCl pH 8.0, 60 mM NaCl, 2 mM EDTA, 1 mM DTT, 10% glycerol, 0.1 mg/ml BSA, 20 min on ice; FRET: 1.5 uM protein, 50 nM; settings: protein: recombinant; tags: His6 (pET32c); label: 32P 5' end; single strand
[7] = target: T3, Rx1(1-489) WT (CC-NB-ARC); test: EMSA; apparent Kd in Table 1 (values not in material); text: submicromolar; EMSA: 0.15 nM 32P nucleic acid, 20 mM Tris-HCl pH 8.0, 60 mM NaCl, 2 mM EDTA, 1 mM DTT, 10% glycerol, 0.1 mg/ml BSA, 20 min on ice; FRET: 1.5 uM protein, 50 nM; settings: protein: recombinant; tags: His6 (pET32c); label: 32P 5' end; blunt
[8] = target: T3, Rx1(1-489) WT (CC-NB-ARC); test: EMSA; higher affinity than dsDNA or ssRNA; Kd in Table 1 not in material; EMSA: 0.15 nM 32P nucleic acid, 20 mM Tris-HCl pH 8.0, 60 mM NaCl, 2 mM EDTA, 1 mM DTT, 10% glycerol, 0.1 mg/ml BSA, 20 min on ice; FRET: 1.5 uM protein, 50 nM; settings: protein: recombinant; tags: His6 (pET32c); label: 32P 5' end; single strand
[9] = target: T3, Rx1(1-489) WT (CC-NB-ARC); test: EMSA; higher affinity than F12-ds/ss; EMSA: 0.15 nM 32P nucleic acid, 20 mM Tris-HCl pH 8.0, 60 mM NaCl, 2 mM EDTA, 1 mM DTT, 10% glycerol, 0.1 mg/ml BSA, 20 min on ice; FRET: 1.5 uM protein, 50 nM; settings: protein: recombinant; tags: His6 (pET32c); label: 32P 5' end of strand 1; fork 1:2, two single-stranded arms

Molecule: Nc1ncnc2c1ncn2[C@@H]1O[C@H](COP(=O)(O)OP(=O)(O)OP(=O)(O)O)[C@@H](O)[C@H]1O [ATP]
- time-resolved FRET of DNA bending [1]: Notably ATP, but not ADP, strongly increased the contribution of the 129-ps lifetime

B1: C3/mORB dual site of oriC2 (dsDNA)
DNA 1: CTCAATACAATTGTCTCTGTGTAAATTTCCTACGTTTCATCTGAAAATCTAGCTATTAGAGCTTGGTTTA
DNA 2: TAAACCAAGCTCTAATAGCTAGATTTTCAGATGAAACGTAGGAAATTTACACAGAGACAATTGTATTGAG
- binding result [2]: binds
- binding result [3]: binds

B2: 20-bp FRET duplex (dsDNA)
DNA 1: TGGGTCAACGTGGGCAAAGA
DNA 2: TCTTTGCCCACGTTGACCCA
- binding result [4]: binds
- binding result [5]: binds

B3: SS1 ssRNA (ssRNA)
RNA: UGGGUCAACGUGGGCAAAGAUGUCCUAGCAAUGUAAUCGUCUAUGACGUU
- binding result [6]: binds

B4: SS1/SS2 dsDNA (dsDNA)
DNA 1: TGGGTCAACGTGGGCAAAGATGTCCTAGCAATGTAATCGTCTATGACGTT
DNA 2: AACGTCATAGACGATTACATTGCTAGGACATCTTTGCCCACGTTGACCCA
- binding result [7]: binds

B5: SS1 ssDNA (ssDNA)
DNA: TGGGTCAACGTGGGCAAAGATGTCCTAGCAATGTAATCGTCTATGACGTT
- binding result [8]: binds

B6: F12-ss/ss (structured_DNA)
DNA 1: GACGCTGCCGAATTCTGGCTTGCTAGGACATCTTTGCCCACGTTGACCC
DNA 2: TGGGTCAACGTGGGCAAAGATGTCCTAGCAATGTAATCGTCTATGACGTT
- binding result [9]: binds
